Experimental data: publication PMC12002230, “The cryo-EM structure and physical basis for anesthetic inhibition of the THIK1 K2P channel” (Proceedings of the National Academy of Sciences of the …, 2025)

Target: the molecule itself
Experiment: cryo-EM structure; purified THIK1EM at 2.4 mg/mL in 150 mM KCl, 20 mM Tris pH 8, 0.01% GDN; 300 kV Titan Krios, RELION; 3.2 Å

B1: C-terminally truncated human THIK1 (KCNK13), residues 1 to 309 (domain or fragment, UniProt Q9HB14 1-309, looked up)
chain: MAGRGFSWGPGHLNEDNARFLLLAALIVLYLLGGAAVFSALELAHERQAKQRWEERLANFSRGHNLSRDELRGFLRHYEEATRAGIRVDNVRPRWDFTGAFYFVGTVVSTIGFGMTTPATVGGKIFLIFYGLVGCSSTILFFNLFLERLITIIAYIMKSCHQRQLRRRGALPQESLKDAGQCEVDSLAGWKPSVYYVMLILCTASILISCCASAMYTPIEGWSYFDSLYFCFVAFSTIGFGDLVSSQNAHYESQGLYRFANFVFILMGVCCIYSLFNVISILIKQSLNWILRKMDSGCCPQCQRGLLRS
modifications: N-glycosylation at N59 and N65
notes: C-terminally truncated; The N-terminal GFP-His10 tags were removed by PreScission (3C) protease at LEVLFQ/GP; residues of the cleavage site probably remain at the N-terminus (surmised); Homodimeric K2P channel in GDN detergent; also called THIK1EM; hTHIK1EM; source: HEK293 GnTi- cells, baculovirus (BacMam) infection, purified (GFP-nanobody resin, 3C cleavage, Superdex 200 in GDN); not shown: GFP, …
**Q.** With B1 as the protein, how does the “stoichiometry N” value read?
**A.** Its value is 2.
